From article PMC8175468, “3D architecture and structural flexibility revealed in the subfamily of large glutamate dehydrogenases by a mycobacterial enzyme” (Communications Biology, 2021)

B1: Se-Met mL-GDH180 (seleno-methionine derivative of the mycobacterial L-GDH180 from Mycobacterium smegmatis MC2-155) (enzyme, UniProt A0R1C2 1-1594, looked up)
chain: MIRRLSVAFLSTYRGPQADAPGVTSTGPLAVAAHDDLVSDDLVAAHYRLASMRAPGETKAAVYPGDAGSGAALQIVTDQAPMLVDSVTVLLHRHGIAYTAIMNPVFRVRRGLDGELLDVRPAAEAAPGDGADECWILVPITAAADGEALTEATRLVPGILAEARQIGLDSGAMIAALHGLANDLATDLEGHFPNAERKEVAALLRWLADGHFVLLGYQQCVVGDGNAEVDPASRLGVLRLRNDVLPPLTDSDDLLVLAQATMPSYLRYGAYPYIVVVRESPGASRVIEHRFVGLFTVAAMNANALEIPLISRRVEEALAMAHRDPSHPGQLLRDIIQTIPRPELFALSSKQLLEMALAVVDLGSRRRTLLFLRADHLAHFVSCLVYLPRDRYTTAVRLEMQDILVRELGGAGIDYSARVSESPWAVVHFTVRLPEGTAADSVDTSLENESRIQDLLTEATRNWGDRMISAAAAASISPAALEHYAHAFPEDYKQAFAPQDAIADISLIEALQDDSVKLVLADTAEDRVWKLTWYLGGHSASLSELLPMLQSMGVVVLEERPFTLRRTDGLPVWIYQFKISPHPSIPHAPDAEAQRDTAQRFADAVTAIWHGRVEIDRFNELVMRAGLTWQQVVVLRAYAKYLRQAGFPYSQSHIESVLNENPHTTRSLIDLFEALFDPSQETDGRRDAQGAAAAVAADIDALVSLDTDRVLRAFANLIEATLRTNYFVARPDSARARNVLAFKLNPLVIKELPLPRPKFEIFVYSPRVEGVHLRFGFVARGGLRWSDRREDFRTEILGLVKAQAVKNAVIVPVGAKGGFVVKRPPTLTGDAAADREATRAEGVECYRLFISGLLDVTDNVDKATGAVVTPPEVVRRDGEDAYLVVAADKGTATFSDIANEVAKSYGFWLGDAFASGGSIGYDHKAMGITAKGAWESVKRHFREMGVDTQTQDFTVVGIGDMSGDVFGNGMLLSKHIRLVAAFDHRDIFLDPNPDAGRSWDERKRLFDLPRSSWADYDKSLISEGGGVYSRQQKSIPISPQVRTALGLDADVEELTPPALIKAILKAPVDLLWNGGIGTYIKAETEADADVGDRANDQIRVCGNQVRAKVIGEGGNLGVTALGRIEFDLAGGRINTDALDNSAGVDCSDHEVNIKILIDSAVTAGKVTPEERTELLLSMTDEVGELVLADNRDQNDLMGTSRANAASLLSVHARMIKDLVDNRGLNRELEALPSEKEIRRRADAGIGLTSPELATLMAHVKLALKDDVLASDLPDQEVFASRLPYYFPTRLREELHGEIRSHQLRREIITTMLVNDLVDTAGISYAYRITEDVGVGPVDAVRSYVAINAIFGIGDVWRRIRAAGDAGVPTSVTDRMTLDLRRLVDRAGRWLLNYRPQPLAVGAEINRFGAKVAALTPRMSEWLRGDDKAIVSKEAGDFASHGVPEDLAYHIATGLYQYSLLDVIDIADIVDREPDEVADTYFALMDHLGADALLTAVSRLSRDDRWHSLARLAIRDDIYGSLRALCFDVLAVGEPDENGEEKIAEWETTNSSRVTRARRTLTEIYKDGEQDLATLSVAARQIRSMTRTSGTGTTG
modifications: seleno-methionine in place of methionine
notes: No cleavage of the His6 tag is described; Crystallised from a solution that also held an equimolar amount of GarA from M. tuberculosis, which was not found in the crystal; also called seleno-methionine (Se-Met) derivative of mL-GDH180
B2: native mL-GDH180 (mycobacterial large glutamate dehydrogenase of 180 kDa subunits from Mycobacterium smegmatis MC2-155) (enzyme, UniProt A0R1C2 1-1594, looked up)
chain: MIRRLSVAFLSTYRGPQADAPGVTSTGPLAVAAHDDLVSDDLVAAHYRLASMRAPGETKAAVYPGDAGSGAALQIVTDQAPMLVDSVTVLLHRHGIAYTAIMNPVFRVRRGLDGELLDVRPAAEAAPGDGADECWILVPITAAADGEALTEATRLVPGILAEARQIGLDSGAMIAALHGLANDLATDLEGHFPNAERKEVAALLRWLADGHFVLLGYQQCVVGDGNAEVDPASRLGVLRLRNDVLPPLTDSDDLLVLAQATMPSYLRYGAYPYIVVVRESPGASRVIEHRFVGLFTVAAMNANALEIPLISRRVEEALAMAHRDPSHPGQLLRDIIQTIPRPELFALSSKQLLEMALAVVDLGSRRRTLLFLRADHLAHFVSCLVYLPRDRYTTAVRLEMQDILVRELGGAGIDYSARVSESPWAVVHFTVRLPEGTAADSVDTSLENESRIQDLLTEATRNWGDRMISAAAAASISPAALEHYAHAFPEDYKQAFAPQDAIADISLIEALQDDSVKLVLADTAEDRVWKLTWYLGGHSASLSELLPMLQSMGVVVLEERPFTLRRTDGLPVWIYQFKISPHPSIPHAPDAEAQRDTAQRFADAVTAIWHGRVEIDRFNELVMRAGLTWQQVVVLRAYAKYLRQAGFPYSQSHIESVLNENPHTTRSLIDLFEALFDPSQETDGRRDAQGAAAAVAADIDALVSLDTDRVLRAFANLIEATLRTNYFVARPDSARARNVLAFKLNPLVIKELPLPRPKFEIFVYSPRVEGVHLRFGFVARGGLRWSDRREDFRTEILGLVKAQAVKNAVIVPVGAKGGFVVKRPPTLTGDAAADREATRAEGVECYRLFISGLLDVTDNVDKATGAVVTPPEVVRRDGEDAYLVVAADKGTATFSDIANEVAKSYGFWLGDAFASGGSIGYDHKAMGITAKGAWESVKRHFREMGVDTQTQDFTVVGIGDMSGDVFGNGMLLSKHIRLVAAFDHRDIFLDPNPDAGRSWDERKRLFDLPRSSWADYDKSLISEGGGVYSRQQKSIPISPQVRTALGLDADVEELTPPALIKAILKAPVDLLWNGGIGTYIKAETEADADVGDRANDQIRVCGNQVRAKVIGEGGNLGVTALGRIEFDLAGGRINTDALDNSAGVDCSDHEVNIKILIDSAVTAGKVTPEERTELLLSMTDEVGELVLADNRDQNDLMGTSRANAASLLSVHARMIKDLVDNRGLNRELEALPSEKEIRRRADAGIGLTSPELATLMAHVKLALKDDVLASDLPDQEVFASRLPYYFPTRLREELHGEIRSHQLRREIITTMLVNDLVDTAGISYAYRITEDVGVGPVDAVRSYVAINAIFGIGDVWRRIRAAGDAGVPTSVTDRMTLDLRRLVDRAGRWLLNYRPQPLAVGAEINRFGAKVAALTPRMSEWLRGDDKAIVSKEAGDFASHGVPEDLAYHIATGLYQYSLLDVIDIADIVDREPDEVADTYFALMDHLGADALLTAVSRLSRDDRWHSLARLAIRDDIYGSLRALCFDVLAVGEPDENGEEKIAEWETTNSSRVTRARRTLTEIYKDGEQDLATLSVAARQIRSMTRTSGTGTTG
notes: NAD-dependent large glutamate dehydrogenase (L-GDH180), Mycobacterium smegmatis MC2-155, MSMEG_4699, Uniprot A0R1C2; No cleavage of the His6 tag is described; Only residues 500-1588 are modelled in the cryo-EM coordinates (7A1D); also called L-GDH180 from M. smegmatis; MSMEG_4699; source: E. coli BL21(DE3) grown in LB broth, purified (HisTrap HP, Superose 6 size-exclusion chromatography)

Key:
[1] = molecular target: the molecule itself; test: crystal structure; Se-Met mL-GDH180 at 16.5 mg/ml with equimolar GarA; 100 mM sodium cacodylate pH 5.8, 12% v/v glycerol, 1.25 M (NH4)2SO4, 4 °C; two monomers in the asymmetric unit, tetramer by crystallographic symmetry; 6.27 Å
[2] = molecular target: the molecule itself; test: cryo-EM structure; 0.3 mg/ml native mL-GDH180 on Quantifoil R2/2 grids; single-particle, D2 symmetry; open (4.19 Å) and closed (6.6 Å) tetramers

Protein | stoichiometry N [1] | stoichiometry N [2]
B1 | 4 | –
B2 | – | 4
